The experiment deals with transferrin receptor (TfR) (human (endogenous in Caco-2)) (UniProt P02786).
Chain of transferrin receptor (TfR) (human (endogenous in Caco-2)) (P02786 whole entry): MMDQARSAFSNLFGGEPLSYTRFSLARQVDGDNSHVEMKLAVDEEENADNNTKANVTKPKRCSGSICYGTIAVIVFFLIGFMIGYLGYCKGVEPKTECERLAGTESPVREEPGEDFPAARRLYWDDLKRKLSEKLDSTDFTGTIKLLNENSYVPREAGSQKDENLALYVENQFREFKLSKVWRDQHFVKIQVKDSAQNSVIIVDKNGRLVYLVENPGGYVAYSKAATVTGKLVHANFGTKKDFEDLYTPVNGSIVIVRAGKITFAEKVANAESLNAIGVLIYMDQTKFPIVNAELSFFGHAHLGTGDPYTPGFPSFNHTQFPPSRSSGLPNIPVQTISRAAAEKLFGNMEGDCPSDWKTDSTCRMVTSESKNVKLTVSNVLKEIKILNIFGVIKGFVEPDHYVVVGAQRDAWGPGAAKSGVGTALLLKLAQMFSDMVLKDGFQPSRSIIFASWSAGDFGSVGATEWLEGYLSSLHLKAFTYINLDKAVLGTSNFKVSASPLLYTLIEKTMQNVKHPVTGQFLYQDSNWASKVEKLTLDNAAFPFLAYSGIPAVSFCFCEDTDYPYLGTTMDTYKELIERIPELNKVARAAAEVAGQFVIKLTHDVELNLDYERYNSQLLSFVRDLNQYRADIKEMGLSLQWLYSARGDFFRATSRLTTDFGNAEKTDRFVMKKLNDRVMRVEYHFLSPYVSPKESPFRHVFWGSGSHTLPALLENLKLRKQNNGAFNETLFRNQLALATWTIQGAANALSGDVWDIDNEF

Chain of rFIX-Tf/Dithi (P02787 whole entry, looked up): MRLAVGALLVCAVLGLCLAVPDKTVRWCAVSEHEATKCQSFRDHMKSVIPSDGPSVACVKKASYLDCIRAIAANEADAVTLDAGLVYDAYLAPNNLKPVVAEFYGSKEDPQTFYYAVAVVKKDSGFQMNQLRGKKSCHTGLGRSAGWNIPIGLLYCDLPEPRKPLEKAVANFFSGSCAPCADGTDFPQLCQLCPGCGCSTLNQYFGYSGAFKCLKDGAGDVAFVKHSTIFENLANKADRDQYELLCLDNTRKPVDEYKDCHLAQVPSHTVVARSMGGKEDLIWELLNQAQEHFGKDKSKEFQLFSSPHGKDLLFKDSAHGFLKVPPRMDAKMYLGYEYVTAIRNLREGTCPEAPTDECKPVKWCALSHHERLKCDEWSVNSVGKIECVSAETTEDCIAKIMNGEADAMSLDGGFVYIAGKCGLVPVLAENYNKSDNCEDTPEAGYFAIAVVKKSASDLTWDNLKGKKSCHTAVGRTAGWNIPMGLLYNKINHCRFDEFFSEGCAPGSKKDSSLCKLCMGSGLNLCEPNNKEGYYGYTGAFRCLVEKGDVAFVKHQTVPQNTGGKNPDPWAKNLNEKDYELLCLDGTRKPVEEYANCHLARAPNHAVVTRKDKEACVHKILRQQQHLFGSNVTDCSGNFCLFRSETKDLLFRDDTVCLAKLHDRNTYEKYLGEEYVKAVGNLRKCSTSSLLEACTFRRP
Chain of rFIX-Tf/Dithi (P00740 whole entry, looked up): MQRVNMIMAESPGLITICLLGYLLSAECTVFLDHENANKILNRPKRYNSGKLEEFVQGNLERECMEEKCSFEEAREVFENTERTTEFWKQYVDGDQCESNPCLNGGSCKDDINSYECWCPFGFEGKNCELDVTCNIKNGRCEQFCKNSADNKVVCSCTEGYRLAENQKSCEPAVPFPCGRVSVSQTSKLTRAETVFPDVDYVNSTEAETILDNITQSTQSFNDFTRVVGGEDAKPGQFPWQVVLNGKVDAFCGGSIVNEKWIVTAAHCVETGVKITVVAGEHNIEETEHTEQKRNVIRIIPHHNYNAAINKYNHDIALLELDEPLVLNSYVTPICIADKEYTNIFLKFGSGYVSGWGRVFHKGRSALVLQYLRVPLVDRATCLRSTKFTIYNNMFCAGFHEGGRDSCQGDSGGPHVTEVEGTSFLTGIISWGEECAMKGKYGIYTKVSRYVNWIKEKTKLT

Substance “rFIX-Tf/Dithi (from UniProt P00740 47-461; P02787 20-698)” yielded a specific apical-to-basolateral transcytosis across Caco-2 monolayers at 6 h, fold over BeneFIX of 4.4 fold and a specific apical-to-basolateral transcytosis across Caco-2 monolayers, fold over FIX-Tf (LE dipeptide linker) of 1.5 fold. Take “BeneFIX^®, a marketed coagulation factor IX (recombinant) product (enzyme)”: the specific (total minus nonspecific with 100-fold excess Tf) apical-to-basolateral transcytosis across Caco-2 monolayers, about 100 mIU/mL apical, 2, 4 and 6 h; protein transport rate at 6 h stood at 0.024%.

The record behind these values is publication PMC6981973.
